Assay [1] deals with T1, hCXCR2–Renilla luciferase (human), P25025.
T1 chain: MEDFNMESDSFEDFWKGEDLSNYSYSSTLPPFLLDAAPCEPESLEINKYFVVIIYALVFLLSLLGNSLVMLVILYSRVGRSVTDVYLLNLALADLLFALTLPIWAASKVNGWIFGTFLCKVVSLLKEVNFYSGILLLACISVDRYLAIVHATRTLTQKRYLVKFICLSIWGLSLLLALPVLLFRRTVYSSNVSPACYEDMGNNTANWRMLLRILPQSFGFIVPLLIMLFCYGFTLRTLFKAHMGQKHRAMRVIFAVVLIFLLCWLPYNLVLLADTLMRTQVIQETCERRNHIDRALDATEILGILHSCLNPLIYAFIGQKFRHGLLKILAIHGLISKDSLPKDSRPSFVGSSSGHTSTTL
As to the kind of experiment: FRET or BRET. To be noted: remark: other sources report otherwise. For orientation: In BRET a luciferase serves as donor, and the signal depends on an acceptor being close.

Assay [2] concerns the target T2, hDOP–Renilla luciferase (human), P41143.
T2 chain: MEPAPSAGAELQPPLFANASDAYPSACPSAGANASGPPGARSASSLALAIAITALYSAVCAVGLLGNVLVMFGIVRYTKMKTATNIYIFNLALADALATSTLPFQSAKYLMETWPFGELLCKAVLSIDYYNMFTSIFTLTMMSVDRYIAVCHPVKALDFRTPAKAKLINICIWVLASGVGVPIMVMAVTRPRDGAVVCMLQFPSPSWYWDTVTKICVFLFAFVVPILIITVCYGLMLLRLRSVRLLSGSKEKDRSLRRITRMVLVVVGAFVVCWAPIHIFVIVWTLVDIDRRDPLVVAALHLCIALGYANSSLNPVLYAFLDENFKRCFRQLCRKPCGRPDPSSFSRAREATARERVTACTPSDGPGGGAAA
As to the kind of experiment: FRET or BRET. To be noted: remark: other sources report otherwise.

B1: hCXCR2–GFP^2, P25025 1-360 (receptor)
chain: MEDFNMESDSFEDFWKGEDLSNYSYSSTLPPFLLDAAPCEPESLEINKYFVVIIYALVFLLSLLGNSLVMLVILYSRVGRSVTDVYLLNLALADLLFALTLPIWAASKVNGWIFGTFLCKVVSLLKEVNFYSGILLLACISVDRYLAIVHATRTLTQKRYLVKFICLSIWGLSLLLALPVLLFRRTVYSSNVSPACYEDMGNNTANWRMLLRILPQSFGFIVPLLIMLFCYGFTLRTLFKAHMGQKHRAMRVIFAVVLIFLLCWLPYNLVLLADTLMRTQVIQETCERRNHIDRALDATEILGILHSCLNPLIYAFIGQKFRHGLLKILAIHGLISKDSLPKDSRPSFVGSSSGHTSTTL
As to B1, the BRET50 ([acceptor] to [donor] ratio) in assay [1] amounted to 1.6.

B2: hDOP–GFP^2, P41143 1-372 (receptor)
chain: MEPAPSAGAELQPPLFANASDAYPSACPSAGANASGPPGARSASSLALAIAITALYSAVCAVGLLGNVLVMFGIVRYTKMKTATNIYIFNLALADALATSTLPFQSAKYLMETWPFGELLCKAVLSIDYYNMFTSIFTLTMMSVDRYIAVCHPVKALDFRTPAKAKLINICIWVLASGVGVPIMVMAVTRPRDGAVVCMLQFPSPSWYWDTVTKICVFLFAFVVPILIITVCYGLMLLRLRSVRLLSGSKEKDRSLRRITRMVLVVVGAFVVCWAPIHIFVIVWTLVDIDRRDPLVVAALHLCIALGYANSSLNPVLYAFLDENFKRCFRQLCRKPCGRPDPSSFSRAREATARERVTACTPSDGPGGGAAA
For the molecule B2, the BRET50 ([acceptor] to [donor] ratio) in assay [2] was 2.2.

The values are drawn from article PMC2474558.
